# Target: IL-17A (agonist in the IL-17RA/IL17RC dimerization assay) (UniProt Q16552 24-155)
# Test: cell-based or functional assay
# Chain of IL-17A (agonist in the IL-17RA/IL17RC dimerization assay) (Q16552 24-155 limits assumed): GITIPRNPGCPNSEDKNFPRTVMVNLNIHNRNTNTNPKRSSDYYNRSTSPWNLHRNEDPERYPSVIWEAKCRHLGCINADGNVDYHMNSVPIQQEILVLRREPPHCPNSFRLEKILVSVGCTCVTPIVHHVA
binder,measurement,value
Ac-IHVTIPADLWDWIEK-NH2 [peptide of SEQ ID NO: 11],IC50 in IL-17RA/IL7RC dimerization assay,< 0.4 µM
Ac-IHVTVPADLWDWINK-NH2 [peptide of SEQ ID NO: 183],IC50 in IL-17RA/IL7RC dimerization assay,< 10 µM
Ac-IHVTIGADLWDWINK-NH2 [peptide of SEQ ID NO: 187],IC50 in IL-17RA/IL7RC dimerization assay,< 10 µM
Ac-IHWTIPADLWDWINK-NH2 [peptide of SEQ ID NO: 173],IC50 in IL-17RA/IL7RC dimerization assay,< 10 µM
Ac-IHLTIPADLWDWINK-NH2 [peptide of SEQ ID NO: 169],IC50 in IL-17RA/IL7RC dimerization assay,< 10 µM
Ac-IHVTIVADLWDWINK-NH2 [peptide of SEQ ID NO: 189],IC50 in IL-17RA/IL7RC dimerization assay,< 10 µM
Ac-IHGTIPADLWDWINK-NH2 [peptide of SEQ ID NO: 168],IC50 in IL-17RA/IL7RC dimerization assay,< 10 µM
Ac-IHATIPADLWDWINK-NH2 [peptide of SEQ ID NO: 167],IC50 in IL-17RA/IL7RC dimerization assay,< 10 µM
Ac-IHVSIPADLWDWINK-NH2 [peptide of SEQ ID NO: 175],IC50 in IL-17RA/IL7RC dimerization assay,< 10 µM
Ac-IHVYIPADLWDWINK-NH2 [peptide of SEQ ID NO: 176],IC50 in IL-17RA/IL7RC dimerization assay,< 10 µM
Ac-IHVTAPADLWDWINK-NH2 [peptide of SEQ ID NO: 179],IC50 in IL-17RA/IL7RC dimerization assay,< 10 µM
Ac-IEVTIPADLWDWINK-NH2 [peptide of SEQ ID NO: 164],IC50 in IL-17RA/IL7RC dimerization assay,< 10 µM
Ac-IHVTFPADLWDWINK-NH2 [peptide of SEQ ID NO: 184],IC50 in IL-17RA/IL7RC dimerization assay,< 10 µM
Ac-IHVTILADLWDWINK-NH2 [peptide of SEQ ID NO: 188],IC50 in IL-17RA/IL7RC dimerization assay,< 10 µM
Ac-IHVTLPADLWDWINK-NH2 [peptide of SEQ ID NO: 181],IC50 in IL-17RA/IL7RC dimerization assay,< 10 µM
Ac-IHVTGPADLWDWINK-NH2 [peptide of SEQ ID NO: 180],IC50 in IL-17RA/IL7RC dimerization assay,< 10 µM
Ac-IHVTYPADLWDWINK-NH2 [peptide of SEQ ID NO: 185],IC50 in IL-17RA/IL7RC dimerization assay,< 10 µM
Ac-IHYTIPADLWDWINK-NH2 [peptide of SEQ ID NO: 172],IC50 in IL-17RA/IL7RC dimerization assay,< 10 µM
Ac-IHVQIPADLWDWINK-NH2 [peptide of SEQ ID NO: 178],IC50 in IL-17RA/IL7RC dimerization assay,< 10 µM
Ac-IHVNIPADLWDWINK-NH2 [peptide of SEQ ID NO: 177],IC50 in IL-17RA/IL7RC dimerization assay,< 10 µM
Ac-IHITIPADLWDWINK-NH2 [peptide of SEQ ID NO: 171],IC50 in IL-17RA/IL7RC dimerization assay,< 10 µM
Ac-IHPTIPADLWDWINK-NH2 [peptide of SEQ ID NO: 170],IC50 in IL-17RA/IL7RC dimerization assay,< 10 µM
Ac-IQVTIPADLWDWINK-NH2 [peptide of SEQ ID NO: 165],IC50 in IL-17RA/IL7RC dimerization assay,< 10 µM
Ac-IYVTIPADLWDWINK-NH2 [peptide of SEQ ID NO: 166],IC50 in IL-17RA/IL7RC dimerization assay,< 10 µM
Ac-IHFTIPADLWDWINK-NH2 [peptide of SEQ ID NO: 174],IC50 in IL-17RA/IL7RC dimerization assay,< 10 µM
